Where “and” joins values, the source holds several entries; their conditions need not be identical. Equal values may be shown once. Ends that are not written are not given here.
T1: Pseudomonas moraviensis stanleyea GRLMR-SeBP (glutathione reductase-like metalloid reductase, GRLMR, with the selenium nanoparticle binding peptide SeBP/SeBP1, (Pseudomonas moraviensis, UniProt A0A2A2PF31, INS452LTPHKHHKHLHA))
T1 sequence (A0A2A2PF31 1-452 INS452LTPHKHHKHLHA): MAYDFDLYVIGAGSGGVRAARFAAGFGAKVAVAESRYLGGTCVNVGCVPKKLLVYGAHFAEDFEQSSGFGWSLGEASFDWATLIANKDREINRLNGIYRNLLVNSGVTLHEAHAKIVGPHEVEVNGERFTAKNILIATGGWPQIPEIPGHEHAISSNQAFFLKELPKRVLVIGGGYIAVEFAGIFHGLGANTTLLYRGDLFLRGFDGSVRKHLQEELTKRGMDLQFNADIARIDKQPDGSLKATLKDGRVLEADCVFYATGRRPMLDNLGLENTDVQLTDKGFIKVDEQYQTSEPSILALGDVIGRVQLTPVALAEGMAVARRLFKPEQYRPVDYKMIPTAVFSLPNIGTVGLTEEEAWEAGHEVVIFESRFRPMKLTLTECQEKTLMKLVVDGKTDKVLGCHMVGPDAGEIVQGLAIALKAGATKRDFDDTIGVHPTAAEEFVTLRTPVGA


Legend:
[1] = biological target: glutathione reductase-like metalloid reductase (GRLMR) (Pseudomonas moraviensis stanleyae); assay: negative binding assay: phage (input 10^10 pfu) on wells coated with unreacted GRLMR, acid-eluted phage titered on E. coli
[2] = biological target: Pseudomonas moraviensis stanleyea GRLMR (glutathione reductase-like metalloid reductase), without SeBP (Pseudomonas moraviensis, UniProt A0A2A2PF31); assay: KM and kcat study: NADPH consumption at 340 nm, V0 vs substrate concentration; type: biochemical; settings: substrate HNaSeO3; PBS, pH 7.4; 13 μg of enzyme; 200 μM NADPH; 0.05 mM-2 mM substrate
Source text: (§1) Because of the dramatic difference in SeBP size, morphology and aggregation state that depends on SeBP concatenation to GRLMR, whether this concatenation also alters the kinetic properties of the enzyme was investigated. To explore this possibility, NADPH concentrations were monitored spectroscopically during GRLMR enzymatic reactions to establish fundamental enzymatic kinetics in the presence and absence of the peptide. FIG. 4 depicts the plots of V0s attained by the GRLMR with and without SeBP over a range of substrate concentrations.
(§2) Initial velocities (V0) of the GRLMR-SeBP were performed in various concentrations of HNaSeO3 or GSSG while monitoring 340 nm correlating to NADPH absorbance. The reactions were run in PBS, pH 7.4 and with 13 μg of enzyme with substrate SeO3^2− (1.5 μg of enzyme with substrate GSSG) and 200 μM of NADPH with 0.05 mM-2 mM of substrate. Enzymatic V0s were plotted against substrate concentration in OriginPro from which KM and kcat could then be calculated.

[3] = biological target: T1, Pseudomonas moraviensis stanleyea GRLMR-SeBP (glutathione reductase-like metalloid reductase, GRLMR, with the selenium nanoparticle binding peptide SeBP/SeBP1,; assay: as above; type: biochemical; settings: substrate HNaSeO3; PBS, pH 7.4; 13 μg of enzyme; 200 μM NADPH; 0.05 mM-2 mM substrate
Source text: as §1, §2

Wild Type M13 phage (no inserted sequence), sequence (P69168 19-424 limits assumed): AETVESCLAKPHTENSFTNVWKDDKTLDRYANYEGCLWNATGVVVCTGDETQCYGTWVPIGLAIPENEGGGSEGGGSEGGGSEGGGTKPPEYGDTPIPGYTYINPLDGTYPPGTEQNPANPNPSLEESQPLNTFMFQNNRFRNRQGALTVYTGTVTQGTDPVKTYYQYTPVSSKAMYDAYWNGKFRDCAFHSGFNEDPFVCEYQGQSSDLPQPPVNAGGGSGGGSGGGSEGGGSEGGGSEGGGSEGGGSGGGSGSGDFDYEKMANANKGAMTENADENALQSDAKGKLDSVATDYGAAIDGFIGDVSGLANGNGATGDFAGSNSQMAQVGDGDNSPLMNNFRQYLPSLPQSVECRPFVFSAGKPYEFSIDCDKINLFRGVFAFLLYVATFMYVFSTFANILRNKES

Molecule | eluted phage titer (pfu) [1] | further results
Wild Type M13 phage (no inserted sequence) (from UniProt P69168 19-424) | 150000 pfu | 
O=[Se]([O-])O.[Na+] [HNaSeO3] |  | Km [2]: 1920 ± 1280 µM; kcat [2]: 0.38038 ± 0.1473 s⁻¹ and 0.38038 s⁻¹; Km [3]: 217 ± 57 µM; kcat [3]: 0.67193 ± 0.04143 s⁻¹ and 0.67193 s⁻¹
GWHSPHAHWRVK-{M13 pIII} (peptide, not shown: large carriers, also: displayed on M13 phage pIII, linker not given here) [SeBP4 (…) displayed on M13 phage] | 330000 pfu | 
GPHHMHHHRTHH-{M13 pIII} (peptide, not shown: large carriers, also: displayed on M13 phage pIII, linker not given here) [SeBP2 (…) displayed on M13 phage] | 2.1e+09 pfu | 
WPRHHWHTNYMR-{M13 pIII} (peptide, not shown: large carriers, also: displayed on M13 phage pIII, linker not given here) [SeBP3 (…) displayed on M13 phage] | 3.9e+08 pfu | 
THYNPLRINPIT-{M13 pIII} (peptide, not shown: large carriers, also: displayed on M13 phage pIII, linker not given here) [SeBP5 (…) displayed on M13 phage] | 680000 pfu | 

— patent US12339286B2, “Metal-reducing enzymatic tag for optical and electron microscopy” (Colorado State University Research Foundation, priority 2018, dated 2025)
